Experimental data from the nanobody polyreactivity screen of Harvey et al. (2022).

Experiment: yeast display, Sf9 membrane polyspecificity reagent, FACS + sequencing; frameworks hold sequencing errors
Outline: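 A synthetic nanobody library was expressed on Saccharomyces cerevisiae BJ5465 by galactose induction for 36–48 hours. The library was stained for 1 hour at 4 °C with 10% biotinylated, detergent-solubilized Sf9 membrane reagent and enriched with streptavidin microbeads before FACS. Low and high (top ~1%) gates were set on anti-HA fluorescence for expression and streptavidin fluorescence for reagent binding, and each polyreactivity label reflects the gate of origin.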

Sequence | polyreactivity (PSR sort gate)
QVQLVESGGGLVQAGGSLRLSCAASGFIFQRYAMGWYRQAPGKERELVAAITKSGGSTYYADSVKGRYTISRDNAKNTVYLQMNSLKPEDTAVYYCNAYRYGSYRPHQEDYDYWGQGTQVTVSS | high polyreactivity
QVHLVESGGGLVQAGGSLRLSCAASGSTFYTYVMGWYRQAPGKERELVAAISEDDGNTYYADSVKGRFTISRDNAKNTVYLQMNSLKPEDTAVYYCAADWEDDLAYSAYDYWGQGTQVTVSS | high polyreactivity
QVQLVESGGRLVQAGGSLRLSCAASGRTFGSYAMGWFRQAPGKERELVATIRNSGGISYYADSVKGRFTISRDTAKNTVYLQMNSLKPEDTAVYDCAKLGRYGYDYWGQGTQVTVSS | high polyreactivity
QVQLVESGGGLVQAGGSLRLSCAASGTIFSVNAMGWYRQRLGKKGSWWPLFLTLLPSTYYADSVKARFTISRDNAKNTVYLQMNSLKPEDTAVYYCNAVYSVDFPTPTSDGDPDGFDYWGQGTQVTVSS | low polyreactivity
QVQLVESGGGLVQAGGSLRLSCAASGRTFYYNAMGWYRQAPGKERELVASISWSGTSTYYADSVKGRFTISRDNAKNTVYLQMNSLKPEDTAVYYCATDSYWRQDLYRYEYWGQGTQVTVSS | high polyreactivity
QVQLVESGGGLVQAGGSLRLSCAASGFTFNDYAMGWYRQAPGKERELVAAIDWSGGRTYYADSVKGRFTISRDNAKNTVYLQMNSLKPEDTAVYYCATEYYDGYFPTFDYDYWGQGTQVTVSS | low polyreactivity
QVQLVESGGGLVQAGGSLRLSCAASGSIFDLYTMGWYRQAPGTERELVAAISRSGGSTYYADSVKGRFTISRDNAKNTVYLQMNSLKPEDTAVYYCAARGPYRPPHGDAYYTYGYWGQGTQVTVSS | high polyreactivity
QVQLEESGGGLVQAGGSLRLSCAASGRIFSYNVMGWYRQAPGKEREFVAAITSNDGSTYYADSVKGRFTISRDNAKNTVYLQMNSLKPEDTAVYYCNADFGPVSLKEPFRDDYWGQGTQVNVSS | low polyreactivity
QVQLVESGGGLVQAGGSLRLSCAASGSIFYAYAMGWYIQAPGKERELVAGINTRGGSTYYADSVKGRFTISRDNAKNTVYLQMNSLKPEDTAVYYCAKGTAPIPYRGRVGTSKSDYWGQGTQVTVSS | low polyreactivity
QVQLVESGGGLVQAGGSLRLSCAASGNIFTNNAMGWYRQAPGKEREFVAAITRSGGSTSYADSVKGRFTISRDNAKNTVYLQMISLNPEDTAVYYCAATGYRYRRIYGFDYWGQGTQVTVSS | high polyreactivity
QVQSEESGGGLVQAGGSLRLSCAASGLIFDGYSMGWNRQAPGKERELVAAITRSGASTSYADSVKGRFTISRDNAKNTVYLQMNSLKPDDTAVYYCAAKVHTFYYHYYSWGQGTQVTVSS | high polyreactivity
QVQLVESGGGLVQAGGSLRLSCAASGSTFGRYAMGWYRQAPGKERELVAAITRGGSTNYADSVKGRFTISRDNAKNTVYLPMNSLKPEDTAVYYCAADKPGIFSRFDYWGQGTQVTVSS | low polyreactivity
QVQLVESGGGLVQAGGSLRLSCAASGFTFYTYAMGWYRQAPGKEMELVADISSGGSTNYADSVKGRFTISRDNAKNTVYLQMNSLKPEDTAVYYCSADYYFLDWYDYWGQGTQVTVSS | low polyreactivity
QVQLVESGGGLVQAGGSLRLSCAASGRTFGRNAMGWYRQAPGKERELVADISLRGGRTYYADSVKGRFTISRDNAKNTVYLQMNSLKPEDTAVYYCAAVQPVGLYPRTKYYYWGQGTQVTVSS | high polyreactivity
QVQLVESGGGLVQAGGSLRLSCAASGRTYINNAMGWYRQAPGKERELVAAISRRGGSTYYADSVKGRFTISRDNAKNTVYLQMNSLKPEDTAVSYCAADAFRSQRPYTYDYWGQGTQVTVSS | high polyreactivity
QVQLVESGGGLVQAGGSLRLSCAASGSTLVSNAMGGYRQAAGKERELVAAITSGGSTYYADSVKGRFTISRDNAKNTVYLQMNSRKPEDTAVYYCNADRTRGYQRYDYWGQGTQVTVSS | high polyreactivity
QVQLVESGGGLVQAGGSLRLSCAASGSTFYYNTLGWYRQAPGKERELVAAISRSGGSTYYADSVKGRFTISRDNAKNTVYLQMNSLKPEDTAVYYCAARIIGARNLYGYWGQGTQVTVSS | high polyreactivity
QVQLVESGGGLVQAGGSLRLSCAASGSILVSYAMARYSQAPGKERELVAAISGNSDSTYYADSVKGRFTISRDNAKNTVYLQMNSLKPEDTAVYYCAKEGGNGYDYWGQGTQVTVSS | low polyreactivity
QVQLVESGGGLVQAGGSLRLSCAASGLIILPNAMGWYRQAPGKDRELVAAISSYDGSTYYADSVKGRFTISRDSAKNTVYLQMNSLKPEDTAVYYCAAGYYFQVEPDLVYIYSYEYWGQGTQVTVSS | low polyreactivity
QVQHVESCGGLVQAGGSLRLSCADSGRIFGDYVMGWYRQAPGKERELVASIDTSGGSTYDADSVKGGFTISRDIAKNTVYLQMNSVKPEDSAVYYCAAERKYFVFVYYQGWYDYWGQGTQVTVSS | low polyreactivity
QVQLVESGGGLVQAGGSLRLSCAASGFTFRYYAMGWYRQAHGKERELVASITGGGRTYYADSVKGRFTISRDNAKNTVYLQMNSLKPEDTAVYYCATLLAYRLGSGYDSWGQGTQVTVSS | high polyreactivity
QVQLVESGGGLVQAGGSLRLSCAASGGTFTHNAMGWYRQAPGKERELVAAISSSGVRTYYADSVKGRFTISRDNAKNTVYLQMNSLKPEDTAVYYCAADRFRRLHYWTYDYWGQGTQVTVSS | high polyreactivity

Sequence | polyreactivity (PSR sort gate)
QVQHVESGGGLVQAGGSLRLSCAASGRIFGYYTMGWYRQAPGKERELVATIDWSGDSTYYADSVKGRFTISRDNAKNTVYLQMNSLKPEDTAVYYCAKRYYLYHYDSWGQGTQVTVSS | low polyreactivity
QVQLVESGGGLVHAGGSLRLSCAASGLTFGAYAMGWYRQAPGEERELVATITNSGRTYYADSVKGRFTISRDNAKNTVYLQMNSLKPEDTAVYYCAAQPDGQAMDHWGQGTQVTVSS | low polyreactivity
QVQLVESGGGLVQAGGSLRLSCAASGSIFNWNTMGWYRQAPGKERELVAAITYDGGTTYYADSVKGRFTISRDNAKNTVYLQMNSLKPEDTAVYYCAAEFLYKYGRYDYWGQGTQVTVSS | high polyreactivity
QFQLVESGGGLVQAGGSLRLSCAASGFTFYLYAMGWYRQAPGKERELVAAIRGSGGSTYYADSVKGRFTISRDTAKNSVYLQMNSLKPEDTEVYYCAADYKVSASWYYAYTFYYWGQGTQVTVSS | low polyreactivity
QVQLVESLGGLVQAGGSLRLSCAASGFTFTNYAMGWYRQAPGKERELVAAINSSGSTNYADSVKGRFTISRDNAKNTVYLQMNSLKPEDTAVYYCAVDYSYWVHGFWDDYDYWGQGTQVTVSS | low polyreactivity
QVQLVESGGGLVQAGGSLRLSCAASGRTFGYYAMGWYRQAPGKERELVAAISSRGGSTYYADSVKGRFTISRDNAKNTVYLQMNSLKPEDTAVYYCNTRWTNIHPRYDYWGQGTQVTVSS | high polyreactivity
QVQLVESGGGLVQAGGSLRLTCAASGRIFRKYAMGWYRQAPGKERELVAAISNGGSTNYADSVKGRFTISRDNAKNTVYLQMNSLKPEDTAVYYCAASYRIYRGDSTGFGYWGQGTQVTVSS | high polyreactivity
QVQLVESGGGLVQAGGSLRLSCAASGITFRHYAMGWYRQAPGKEREFVAAITASGSSTYYADSVKGRFTISRDTAKNTVYLQMNSLKPEDTAVYYCAAAGYKYNSRGDYWGPGTQVTVSS | high polyreactivity
QVQHVESGGGLVQAGGSLRLSCAASGRIFVRNAMGWYIQAPGKERELVAAITSGASTYYADSVKGRFTISRDNAKYTVYFQMYSVKPEDTAVSYCAAQAVIASWWTVDYYYWGQGTQVTVSS | high polyreactivity
QVQLVESGGRLVQAGGTLRLSCAASGRNVGLYAMGWSRQAPGKERELVAAISSTGRTTYADSVKGRFTISRDNAKNNVYLQMNSLIPEVTAVYYCKADARSVCWYYYACLFDYWGQGTQGTVSS | low polyreactivity
QVQLVESGGGLVQAGGSLRLSCAASGRTFRPYAMGWYRQAPGKEREFVARITWSGGTTYYADSVKGRFTISRDNAKNTVYLQMNSLKPEDTAVYYCAARVSRQTPLISYNYWGQGTQVTVSS | low polyreactivity
QVQLVESGGGLVQAGGSLRLSCAASGFIFRRNAMGWYRQAPGKERELVAAISRSGGRTYYADSVKGRFTISRDNAKNTVYLQMNSLKPEDTAVYYCAAEYTDKYEYWGQGTQVTVSS | high polyreactivity
QVQLVESGGGLVQAGGSLRLSCAASGFTFQYYDMGWYRQAPGKERELVAAISWSGGSTYYADSVKGRFTISRDNAKNTVYFQMNSLKPEDTAVYYCAAGYTRSRHYTPYDYWGQGTQVTVSS | high polyreactivity
QVQLVESGGGLVQAGGSLSISCAASGRNFGYYTMGWYRQAPGKERELGAAITSGGRTNYADSVKGRFTISRDNAKNTVYLQMNSLKPEDTAVYYCNARRDSTRRGTWYEYWGQGTQVTVSS | high polyreactivity
QVQLVESGGGLVQAGGSLRLSCAASGRTIGLYGMGWYRQAPGKEREFDAAITRRGGSTYYADSVKGRFTISRDHAKNTVYLQMNSLKPEDTADYYCAAGYSSRYRGGLDYWGQGTQVTVSS | high polyreactivity
EVHLLESGGGLVQAGGSLRLSSAASGFTFACNAMGWYRQAPGKERELVAALTWGDNSTYYADSVKGRFTISRDNAKNTVYLQMNSLKQEDTAVYYCGARVTHWYYLFGYDYWGQGTQVTVSS | low polyreactivity
QVKLQESGDGLVQAGGSLRLSSAASGTIFSDYGMGGYRQAPGKERELLAGISDGCNTNYTDSVKGRFTISRDNAHRVSADEQPETGGYRGVLLRGSERWLLFFVYWGQGTQVTVSS | high polyreactivity
QVHLEESGGGLVQAGGSLRLSSAASGSNFDYNAMGWYRQAPGKERELVAAISRTGGRTYYADSVKGRFTISRDNAKNTVYLQMNSLKPEDTAVYYWNAVNRIGGGDYDYWGLGTQVTVSS | low polyreactivity
QVQLVESGGGLVQAGGSLRLSCAASGSIFSYYAMGWYRQAPGKEREFVAAITKSGGSTYYADSVKGRFTISRDNAKNTVYLQMNSLKPEDTAVYYCAADEGGFWWTYPYDSWGQGTQVTVSS | low polyreactivity
QVQLVESGGGLVQARGSLRLSCAASGSIFSANAMGWYRQAPVKERELVAAISSSGNTNYADSVKGRFTISRDNAKNTLYLQMNSLKPEDTAVYYCAVELKQVTPGLGYITLDYWGQGTQVTVSS | low polyreactivity
QDQLVESGGGLVQAGGSLRLSCAASGRIFKSYAMGWYRQAPGKERELVAAIGSRTYYADSVKGRFTISRDNAKNTVYLQMNSLKPEDTAVYYCAVEVWGNSKRYYYWGQGTQVTVSS | high polyreactivity
